Sequences and labels used below:
B1: Protein patched homolog 1 (Homo sapiens), Q13635-1 (parent)
chain: MASAGNAAEPQDRGGGGSGCIGAPGRPAGGGRRRRTGGLRRAAAPDRDYLHRPSYCDAAFALEQISKGKATGRKAPLWLRAKFQRLLFKLGCYIQKNCGKFLVVGLLIFGAFAVGLKAANLETNVEELWVEVGGRVSRELNYTRQKIGEEAMFNPQLMIQTPKEEGANVLTTEALLQHLDSALQASRVHVYMYNRQWKLEHLCYKSGELITETGYMDQIIEYLYPCLIITPLDCFWEGAKLQSGTAYLLGKPPLRWTNFDPLEFLEELKKINYQVDSWEEMLNKAEVGHGYMDRPCLNPADPDCPATAPNKNSTKPLDMALVLNGGCHGLSRKYMHWQEELIVGGTVKNSTGKLVSAHALQTMFQLMTPKQMYEHFKGYEYVSHINWNEDKAAAILEAWQRTYVEVVHQSVAQNSTQKVLSFTTTTLDDILKSFSDVSVIRVASGYLLMLAYACLTMLRWDCSKSQGAVGLAGVLLVALSVAAGLGLCSLIGISFNAATTQVLPFLALGVGVDDVFLLAHAFSETGQNKRIPFEDRTGECLKRTGASVALTSISNVTAFFMAALIPIPALRAFSLQAAVVVVFNFAMVLLIFPAILSMDLYRREDRRLDIFCCFTSPCVSRVIQVEPQAYTDTHDNTRYSPPPPYSSHSFAHETQITMQSTVQLRTEYDPHTHVYYTTAEPRSEISVQPVTVTQDTLSCQSPESTSSTRDLLSQFSDSSLHCLEPPCTKWTLSSFAEKHYAPFLLKPKAKVVVIFLFLGLLGVSLYGTTRVRDGLDLTDIVPRETREYDFIAAQFKYFSFYNMYIVTQKADYPNIQHLLYDLHRSFSNVKYVMLEENKQLPKMWLHYFRDWLQGLQDAFDSDWETGKIMPNNYKNGSDDGVLAYKLLVQTGSRDKPIDISQLTKQRLVDADGIINPSAFYIYLTAWVSNDPVAYAASQANIRPHRPEWVHDKADYMPETRLRIPAAEPIEYAQFPFYLNGLRDTSDFVEAIEKVRTICSNYTSLGLSSYPNGYPFLFWEQYIGLRHWLLLFISVVLACTFLVCAVFLLNPWTAGIIVMVLALMTVELFGMMGLIGIKLSAVPVVILIASVGIGVEFTVHVALAFLTAIGDKNRRAVLALEHMFAPVLDGAVSTLLGVLMLAGSEFDFIVRYFFAVLAILTILGVLNGLVLLPVLLSFFGPYPEVSPANGLNRLPTPSPEPPPSVVRFAMPPGHTHSGSDSSDSEYSSQTTVSGLSEELRHYEAQQGAGGPAHQVIVEATENPVFAHSTVVHPESRHHPPSNPRQQPHLDSGSLPPGRQGQQPRRDPPREGLWPPPYRPRRDAFEISTEGHSGPSNRARWGPRGARSHNPRNPASTAMGSSVPGYCQPITTVTASASVTVAVHPPPVPGPGRNPRGGLCPGYPETDHGLFEDPHVPFHVRCERRDSKVEVIELQDVECEERPRGSSSN

Data on two variants can be found in IntAct's records for PubMed 29995851.

The test covers variants of B1. The note with it: with shh_human SHH.
Regarding L254A;W256A, the “effect of a mutation on the interaction” value was “decreasing interaction strength”.
In the case of E221A;Y222A;L223A;Y224A, the “effect of a mutation on the interaction” value is “disrupting interaction”.
